Measured values as given in patent US11254722B2, “Recombinant proteins and uses thereof” (ACADEMIA SINICA, priority 2017, dated 2022).

Columns and labels:
[1] = test system: IGF-1 and VEGF; experiment: Competition binding ELISA with biotinylated IGF-1 or biotinylated VEGF; conditions: competitive inhibition data, FIG. 8 and FIG. 9
Protocol: (§1) Plates were coated with goat anti-human Fc antibody, blocked and then incubated with chimera as in the Fc ELISA. Biotinylated IGF-1 (GroPep) or VEGF-Biotin (R&D Systems VEGF biotinylated with sulfo-NHS-LC-biotin as per instructions (Pierce) was added for 2 hours followed by streptavidin-HRP (Jackson Immunoresearch) for 30 minutes. Chromogenic development with tetramethyl benzidine was performed as described above.
ELISA plates were coated with 0.5 μg/ml growth factor (IGF-1, IGF-2, VEGF, etc.) in PBS overnight and blocked as described above. After overnight incubation with chimera, chimera binding was detected with anti-human Fc-HRP and development with tetramethyl benzidine as described above.
Binding specificity was also studied by competition binding assays using biotinylated IGF-1 (IGF-1-bio) or biotinylated VEGF (VEGF-bio) in the growth factor ELISA assay.

[2] = test system: MCF-7 breast cancer cells; experiment: MCF-7 proliferation assay; type: cell-based; conditions: FIG. 5
Protocol: (§2) MCF-7 cells (a breast cancer cell line) were maintained in MEM (GIBCO) plus insulin and NEAA and 10% FBS (Hyclone).
(§3) For the proliferation assay, cells except for HUVEC were seeded at a density of 1,000 to 6,000 in 96 wells in an assay buffer of DMEM/F12 plus 0.2% BSA and 10 ug/ml transferrin. Chemical inhibitors were added after 16-20 hours after plating; IGF-1 or other growth factors or test chimeras in assay buffer were added at the time of plating or 16-20 hours after plating. 5,000 HUVEC ells were plated in poly-L-lysine coated 96 wells in M199 with 1%/FBS and HEPES. After 3 to 4 days of culture, growth was determined by incubating cells with Alamar blue for 4 to 6 hours and then the fluorescence (RFU) at 544/590 nm was read. For long term proliferation assays, cells were plated in the growth media with 5% or 10% FBS at densities of 500 to 10,000 cells per cm^2 growth area and grown for 7 to 21 days. Inhibitors and effectors were added 1-4 days after plating. Cells were exposed to cisplatin or gemcitabine for two days. Medium was renewed twice weekly. At completion, cells were fixed and then stained with Giemsa.
We next examined the effect of 56662 (BP3/Fc) on the proliferation induced by growth factors that interacted with the IGFBP3. The proliferation of MCF-7 breast cancer cells was induced in serum-free medium by individual growth factors like IGF-1, IGF-2, EGF, TGF-a, Nrgbx, b-FGF, and amphiregulin (FIG. 1).

[3] = test system: HUVEC cells; experiment: HUVEC proliferation assay; type: cell-based; conditions: for inhibition of VEGF-induced proliferation of HUVEC cells: FIG. 6, FIG. 13
Protocol: as §2, §3
Growth factor synergism can also be observed in the proliferation of HUVEC cells.

[4] = test system: hep3B cells; experiment: hep3B proliferation assay; type: cell-based, human; conditions: FIG. 22A
Protocol: as §3
The human hepatoma cell line hep3B could be stimulated by many growth factors including IGF-1, IGF-2, HGF, bFGF, VEGF, and neuregulin.

[5] = target: T1, VEGF (Homo sapiens, UniProt P15692); experiment: Stability: VEGF binding remaining after overnight incubation; type: physicochemical; conditions: experiment 3-192
T1 construct: purchased R&D Systems
T1 sequence (P15692 27-191 isoform P15692-4): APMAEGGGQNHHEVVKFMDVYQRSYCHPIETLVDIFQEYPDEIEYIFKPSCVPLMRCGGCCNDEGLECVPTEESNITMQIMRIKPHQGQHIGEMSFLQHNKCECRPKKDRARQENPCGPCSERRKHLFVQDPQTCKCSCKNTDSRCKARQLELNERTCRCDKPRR
Protocol: as §1
To test the stability of the present chimeras, some purified chimeras (see, Table 4) were incubated with PBS or a conditioned medium from the MCF-7 cell line overnight at 37° C. and PBS overnight at 4° C. The IGF-1 binding and VEGF binding were measured using the biotinylated IGF-1 and VEGF.

[6] = target: T2, nrgEGF (amino acids Thr176-Lys246 of neuregulin-beta 1) (Homo sapiens, UniProt Q02297); experiment: Biacore binding to nrgEGF
T2 construct: Thr176-Lys246 of neuregulin-beta 1; purchased R&D Sciences or SinoBiologicals
T2 sequence (Q02297 176-246 isoform Q02297-6): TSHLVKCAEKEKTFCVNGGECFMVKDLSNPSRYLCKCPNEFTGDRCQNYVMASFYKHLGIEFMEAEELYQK
Protocol: (§4) Biacore binding was performed at David Myszka's laboratory at the University of Utah or at the Genomic Research Center at Academia Sinica. Surfaces of binding protein chimera were made via chemical immobilization on a CM4 chip using standard amine coupling chemistry. […] Excess surface carboxyl activated sites on all four flow cells was blocked using the doubly positively charged species ethylenediamine. Binding experiments (but not immobilizations) in HBS-P (10 mM HEPES pH 7.4, 150 mM NaCl, 0.05% P20), The HBS-P was supplemented with BSA at 0.2 mg/mL, or HBS-P was supplemented with 500 mM NaCl (650 mM NaCl, final concentration). Analytes were also reconstituted in the corresponding buffer. All experiments were performed at 25° C. 1/150 dilutions of phosphoric acid were used to regenerate IGFBP3-Fc surfaces and a sequence of 3 M MgCl2 followed by 5 M GuCl was used to regenerate surfaces immobilized with growth factor. Dissociation constants reported below used immobilized binding protein unless noted. Differences between binding constants may be expected between growth factor immobilization and chimera immobilization.
(§5) In this example, erbB4 domain 1 was attached to the N-terminus of the recombinant IGFBP3-Fc or the recombinant IGFBP3-v1v2-Fc.

[7] = target: T3, nrgECD (amino acids Ser2-Lys246 of neuregulin beta 1) (Homo sapiens, UniProt Q02297); experiment: Biacore binding to nrgECD; conditions: immobilized nrgECD
T3 construct: Ser2-Lys246 of neuregulin beta 1; purchased R&D Sciences or SinoBiologicals
T3 sequence (Q02297 2-246 isoform Q02297-6): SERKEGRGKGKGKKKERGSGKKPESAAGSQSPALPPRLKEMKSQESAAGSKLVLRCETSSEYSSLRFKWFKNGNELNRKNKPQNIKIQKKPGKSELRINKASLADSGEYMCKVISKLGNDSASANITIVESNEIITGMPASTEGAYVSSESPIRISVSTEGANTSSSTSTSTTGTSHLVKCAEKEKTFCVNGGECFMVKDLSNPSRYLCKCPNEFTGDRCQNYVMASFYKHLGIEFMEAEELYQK
Protocol: as §4, §5

B1: chimera A: IGFBP3 with IGFBP3 linker deletion 1-gly 3 linker-v1v2-Fc, SEQ ID NO: 14 (protein)
chain: MSEVPVARVWLVLLLLTVQVGVTAGGASSAGLGPVVRCEPCDARALAQCAPPPAVCAELVREPGCGCCLTCALSEGQPCGIYTERCGSGLRCQPSPDEARPLQALLDGRGLCVNASAVSKGHAKDSQRYKVDYESQSTDTQNFSSESKRETEYGPCRREMEDTLNHLKFLNVLSPRGVHIPNCDKKGFYKKKQCRPSKGRKRGFCWCVDKYGQPLPGYTTKGKEDVHCYSMQSKAPPAPGNASESEEDRSAGIYIFISDTGRPFVEMYSEIPEIIHMTEGRELVIPCRVTSPNITVTLKKFPLDTLIPDGKRIIWDSRKGFIISNATYKEIGLLTCEATVNGHLYKTNYLTHRQGYRIYDVVLSPSHGIELSVGEKLVLNCTARTELNVGIDFNWEYPSSKHQHKKLVNRDLKTQSGSEMKKFLSTLTIDGVTRSDQGLYTCAASSGLMTKKNSTFVRVHEKVECPPCPAPPVAGPSVFLFPPKPKDQLMISRTPEVTCVVVDVSHEDPEVKFNWYVDGVEVHNAKTKPREEQYNSTYRVVSVLTVLHQDWLNGKEYKCKVSNKGLPSSIEKTISKAKGQPREPQVYTLPPSREEMTKNQVSLTCLVKGFYPSDIAVEWESNGQPENNYKTTPPVLDSDGSFFLYSKLTVDKSRWQQGNVFSCSVMHEGLHNHYTQKSLSLSPGK
simultaneous binding of IGF and VEGF [1]: could bind simultaneously
inhibition of IGF-1-induced proliferation of MCF-7, compared to 56662 and chimera B [2]: a smaller EC50 and a higher maximal inhibition
inhibition of VEGF-induced proliferation of HUVEC cells [3]: potent inhibition
inhibition of HUVEC proliferation stimulated by IGF-1, bFGF, HGF, VEGF, and combinations ([3]; FIG. 14): inhibited
rescue by HGF, bFGF, or IGF in hep3b cells treated with erlotinib [4]: decreased the rescue

B2: Chimera B: IGFBP3 with IGFBP3 linker deletion 1-GS 16 linker-v1v2-Fc, SEQ ID NO: 19 (protein)
chain: MSEVPVARVWLVLLLLTVQVGVTAGGASSAGLGPVVRCEPCDARALAQCAPPPAVCAELVREPGCGCCLTCALSEGQPCGIYTERCGSGLRCQPSPDEARPLQALLDGRGLCVNASAVSKGHAKDSQRYKVDYESQSTDTQNFSSESKRETEYGPCRREMEDTLNHLKFLNVLSPRGVHIPNCDKKGFYKKKQCRPSKGRKRGFCWCVDKYGQPLPGYTTKGKEDVHCYSMQSKGGGGSGGGGSGGGGSGIYIFISDTGRPFVEMYSEIPEIIHMTEGRELVIPCRVTSPNITVTLKKFPLDTLIPDGKRIIWDSRKGFIISNATYKEIGLLTCEATVNGHLYKTNYLTHRQGYRIYDVVLSPSHGIELSVGEKLVLNCTARTELNVGIDFNWEYPSSKHQHKKLVNRDLKTQSGSEMKKFLSTLTIDGVTRSDQGLYTCAASSGLMTKKNSTFVRVHEKVECPPCPAPPVAGPSVFLFPPKPKDQLMISRTPEVTCVVVDVSHEDPEVKFNWYVDGVEVHNAKTKPREEQYNSTYRVVSVLTVLHQDWLNGKEYKCKVSNKGLPSSIEKTISKAKGQPREPQVYTLPPSREEMTKNQVSLTCLVKGFYPSDIAVEWESNGQPENNYKTTPPVLDSDGSFFLYSKLTVDKSRWQQGNVFSCSVMHEGLHNHYTQKSLSLSPGK
inhibition of VEGF-induced proliferation of HUVEC cells [3]: potent inhibition
VEGF binding remaining over control, mcf7 ([5]; MCF-7 conditioned medium overnight at 37° C.): 73%
VEGF binding remaining over control, 37 con ([5]; PBS overnight at 37° C.): 101%

B3: IGFBP3-erbB4-Fc: ErbB4-GS-IGFBP3-gly 3 linker-Fc, SEQ ID NO: 22 (protein)
chain: MSEVPVARVWLVLLLLTVQVGVTAGVQPSDSQSVCAGTENKLSSLSDLEQQYRALRKYYENCEVVMGNLEITSIEHNRDLSFLRSVREVTGYVLVALNQFRYLPLENLRIIRGTKLYEDRYALAIFLNYRKDGNFGLQELGLKNLTEILNGGVYVDQNKFLCYADTIHWQDIVRNPWPSNLTLVSTNGSSGCGRCHKSCTGRCWGPTENHCQTLTRTVGGGGSGGGGSGGGGSGGGGSGGGGGASSAGLGPVVRCEPCDARALAQCAPPPAVCAELVREPGCGCCLTCALSEGQPCGIYTERCGSGLRCQPSPDEARPLQALLDGRGLCVNASAVSKGHAKDSQRYKVDYESQSTDTQNFSSESKRETEYGPCRREMEDTLNHLKFLNVLSPRGVHIPNCDKKGFYKKKQCRPSKGRKRGFCWCVDKYGQPLPGYTTKGKEDVHCYSMQSKVECPPCPAPPVAGPSVFLFPPKPKDQLMISRTPEVTCVVVDVSHEDPEVKFNWYVDGVEVHNAKTKPREEQYNSTYRVVSVLTVLHQDWLNGKEYKCKVSNKGLPSSIEKTISKAKGQPREPQVYTLPPSREEMTKNQVSLTCLVKGFYPSDIAVEWESNGQPENNYKTTPPVLDSDGSFFLYSKLTVDKSRWQQGNVFSCSVMHEGLHNHYTQKSLSLSPGK
Kd [6]: 6 nM
Kd [7]: 0.004 nM
